Results reported in US20030105278A1 (MERK, published 2003).
Read-outs that look alike come from different tables or passages of the source. Blank lines part the entries; values can stand above or below the binder they belong to. Bridges are numbered along the chain shown (N, C = ends). Where no end group is shown, it is not given here. [ ]: non-standard residue; d: D form. Ava = NCCCCC(=O)O

Legend:
[1] = biological target: T1, human MCH receptor expressed from the open reading frame cDNA SEQ. ID. NO. 1 in 293-AEQ17 cells (human, UniProt Q99705 1-353); experiment: cell-based or functional assay
T1 sequence (Q99705 whole entry): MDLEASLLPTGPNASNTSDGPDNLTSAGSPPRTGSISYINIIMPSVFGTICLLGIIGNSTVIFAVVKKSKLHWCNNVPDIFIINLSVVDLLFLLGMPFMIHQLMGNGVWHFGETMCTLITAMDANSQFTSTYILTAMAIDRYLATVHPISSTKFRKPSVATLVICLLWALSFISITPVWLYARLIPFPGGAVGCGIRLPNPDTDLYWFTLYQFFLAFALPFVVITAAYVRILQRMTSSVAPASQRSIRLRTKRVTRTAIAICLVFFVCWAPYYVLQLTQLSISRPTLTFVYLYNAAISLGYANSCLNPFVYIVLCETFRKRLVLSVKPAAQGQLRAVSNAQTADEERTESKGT

[2] = biological target: T2, human MCH receptor (membranes from a stable CHO or HEK-293 cell line) (human, UniProt Q99705 1-353); experiment: competition vs [125I]-human MCH (Phe13,Tyr19); human MCH receptor cell membranes (Example 3)
T2 construct: whole, on cells; also called cloned human MCH receptor (CHO clone)
T2 sequence (Q99705 whole entry): as above

[3] = biological target: T1, human MCH receptor expressed from the …; experiment: cell-based or functional assay; remark: listed apart in the source
[4] = biological target: T2, human MCH receptor (membranes from a …); experiment: SPA competition vs [125I]-human MCH (Phe13,Tyr19); human MCH receptor cell membranes
[5] = biological target: T1, human MCH receptor expressed from the …; experiment: cell-based or functional assay; remark: listed apart in the source
[6] = biological target: T2, human MCH receptor (membranes from a …); experiment: competition vs [125I]-human MCH (Phe13,Tyr19); human MCH receptor cell membranes (Example 3); remark: listed apart in the source
[7] = biological target: T1, human MCH receptor expressed from the …; experiment: cell-based or functional assay; remark: listed apart in the source
[8] = biological target: T1, human MCH receptor expressed from the …; experiment: cell-based or functional assay; remark: listed apart in the source
[9] = biological target: T1, human MCH receptor expressed from the …; experiment: cell-based or functional assay; remark: listed apart in the source
[10] = biological target: T1, human MCH receptor expressed from the …; experiment: cell-based or functional assay; remark: listed apart in the source
[11] = biological target: T2, human MCH receptor (membranes from a …); experiment: competition vs [125I]-human MCH (Phe13,Tyr19); human MCH receptor cell membranes (Example 3); remark: listed apart in the source
[12] = biological target: T2, human MCH receptor (membranes from a …); experiment: as above; remark: listed apart in the source
[13] = biological target: T2, human MCH receptor (membranes from a …); experiment: as above; remark: listed apart in the source
[14] = biological target: T2, human MCH receptor (membranes from a …); experiment: as above; remark: listed apart in the source
[15] = biological target: T2, human MCH receptor (membranes from a …); experiment: competition vs [125I]-human MCH (Phe13,Tyr19); human MCH receptor cell membranes (Example 3); unit of the concentration '1' not given
[16] = biological target: T2, human MCH receptor (membranes from a …); experiment: as above; remark: listed apart in the source
[17] = biological target: human MCH receptor (membranes from a stable CHO or HEK-293 cell line) (human) (UniProt Q99705); experiment: competition vs [125I]-human MCH (Phe13,Tyr19); human MCH receptor cell membranes (Example 3)
Sequence of human MCH receptor (membranes from a stable CHO or HEK-293 cell line) (human) (Q99705 whole entry): as above

% Activation at 10 µM [3]: 123% | EC50 [3]: 36 nM | IC50 [4]: 0.16 nM
B2: truncated MCH analog SEQ. ID. NO. 8: Ac-Arg-Cys-Met-Leu-Gly-Arg-Val-Phe-Arg-Pro-Cys-Tyr-amide (peptide)
peptide: Ac-RCMLGRVFRPCY-NH2
modifications: disulfide 2-11
SMILES: CSCC[C@@H]1NC(=O)[C@@H](NC(=O)[C@H](CCCNC(=N)N)NC(C)=O)CSSC[C@@H](C(=O)N[C@@H](Cc2ccc(O)cc2)C(N)=O)NC(=O)[C@@H]2CCCN2C(=O)[C@H](CCCNC(=N)N)NC(=O)[C@H](Cc2ccccc2)NC(=O)[C@H](C(C)C)NC(=O)[C@H](CCCNC(=N)N)NC(=O)CNC(=O)[C@H](CC(C)C)NC1=O

Activation % [5]: 3% | IC50 [6]: 700 nM
B3: MCH analog SEQ. ID. NO. 74 (D-Pro^10,Ava^14,15) (peptide)
peptide: RCMLXRVYXXC
modifications: not fully specified; D-Pro^10; Ava (5-aminopentanoic acid) in place of positions 14,15; N-terminal acetyl, C-terminal amide, Cys-Cys disulfide as in SEQ. ID. NO. 7
notes: ID; NO; 7 peptide; MCH position numbering

% Activation at 10 µM [3]: 74% | EC50 [3]: 300 nM | IC50 [4]: 1.6 nM
B4: truncated MCH analog SEQ. ID. NO. 9: Ac-Cys-Met-Leu-Gly-Arg-Val-Tyr-Arg-Pro-Cys-amide (peptide)
peptide: Ac-CMLGRVYRPC-NH2
modifications: disulfide 1-10
SMILES: CSCC[C@@H]1NC(=O)[C@@H](NC(C)=O)CSSC[C@@H](C(N)=O)NC(=O)[C@@H]2CCCN2C(=O)[C@H](CCCNC(=N)N)NC(=O)[C@H](Cc2ccc(O)cc2)NC(=O)[C@H](C(C)C)NC(=O)[C@H](CCCNC(=N)N)NC(=O)CNC(=O)[C@H](CC(C)C)NC1=O

Activation % [5]: 105% | IC50 [6]: 0.5 nM
B10: MCH analog SEQ. ID. NO. 77 (Nle^8) (peptide)
peptide: RCXLGRVYRPC
modifications: norleucine at position 8; N-terminal acetyl, C-terminal amide, Cys-Cys disulfide as in SEQ. ID. NO. 7
notes: as for B3

Activation % [5]: 3% | EC50 [5]: > 10000 nM | IC50 [17]: 50 nM
Binder: Ac-RCM[Ava][Ava]RVY[Ava][Ava]C-NH2 (disulfide 2-11; not fully specified) [MCH analog SEQ. ID. NO. 76 (Ava^9,10,Ava^14,15)]

% Activation at 10 µM [3]: 99% | IC50 [4]: 0.3 nM
B14: truncated MCH analog SEQ. ID. NO. 10: Asp-Phe-Asp-Met-Ieu-Arg-Cys-Met-Ieu-Gly-Arg-Val-Tyr-Arg-Pro-Cys-amide (peptide)
peptide: DFDMLRCMLGRVYRPC-NH2
modifications: disulfide 7-16; N-terminus assumed
SMILES: CSCC[C@@H]1NC(=O)[C@@H](NC(=O)[C@H](CCCNC(=N)N)NC(=O)[C@H](CC(C)C)NC(=O)[C@H](CCSC)NC(=O)[C@H](CC(=O)O)NC(=O)[C@H](Cc2ccccc2)NC(=O)[C@@H](N)CC(=O)O)CSSC[C@@H](C(N)=O)NC(=O)[C@@H]2CCCN2C(=O)[C@H](CCCNC(=N)N)NC(=O)[C@H](Cc2ccc(O)cc2)NC(=O)[C@H](C(C)C)NC(=O)[C@H](CCCNC(=N)N)NC(=O)CNC(=O)[C@H](CC(C)C)NC1=O

Activation % [5]: 82% | IC50 [6]: 3.7 nM
B15: MCH analog SEQ. ID. NO. 70 (Ava^9,10) (peptide)
peptide: Ac-RCM[Ava][Ava]RVYRPC-NH2
modifications: disulfide 2-11; not fully specified
notes: as for B3

Activation % [5]: 72% | IC50 [6]: 3.7 nM
B16: MCH analog SEQ. ID. NO. 71 (D-Arg^6,Ava^9,10) (peptide)
peptide: Ac-[dR]CM[Ava][Ava]RVYRPC-NH2
modifications: disulfide 2-11; not fully specified
notes: as for B3

Activation % [5]: 75% | EC50 [5]: 406 nM | IC50 [6]: 6.2 nM
B17: MCH analog SEQ. ID. NO. 72 (Ava^14,15) (peptide)
peptide: Ac-RCMLGRVY[Ava][Ava]C-NH2
modifications: disulfide 2-11
notes: as for B3

The remaining lines, values behind:

B1: MCH analog SEQ. ID. NO. 25 (N-Me-Nle^8) (peptide)
peptide: RCXLGRVYRPC
modifications: N-methyl-norleucine at position 8; N-terminal acetyl, C-terminal amide, Cys-Cys disulfide as in SEQ. ID. NO. 7
notes: as for B3
Activation % [1]: 110% | EC50 [1]: 20 nM | IC50 [2]: 0.16 nM

B5: MCH analog SEQ. ID. NO. 27 (Sar^10) (peptide)
peptide: RCMLXRVYRPC
modifications: sarcosine at position 10; N-terminal acetyl, C-terminal amide, Cys-Cys disulfide as in SEQ. ID. NO. 7
notes: as for B3
Activation % [1]: 95% | IC50 [2]: 2.3 nM

B6: truncated MCH analog SEQ. ID. NO. 7: Ac-Arg-Cys-Met-Leu-Gly-Arg-Val-Tyr-Arg-Pro-Cys-amide (peptide)
peptide: Ac-RCMLGRVYRPC-NH2
modifications: disulfide 2-11 (inferred)
notes: Corresponds to MCH positions 6-16; also called ID; NO; 7 MCH analog
% Activation at 10 µM [3]: 123% | EC50 [3]: 18 nM | Activation % [7]: 99% | EC50 [7]: 20 nM | Activation % [1]: 99% | EC50 [1]: 20 nM | Activation % [8]: 99% | EC50 [8]: 20 nM | Activation % [9]: 99% | EC50 [9]: 20 nM | Activation % [10]: 99% | EC50 [10]: 20 nM | Activation % [5]: 99% | EC50 [5]: 20 nM | IC50 [4]: 0.12 nM | IC50 [11]: 0.5 nM | IC50 [2]: 1.4 nM | IC50 [12]: 1.4 nM | IC50 [13]: 0.5 nM | IC50 [14]: 1.4 nM | IC50 [6]: 1.4 nM

B7: MCH analog SEQ. ID. NO. 64 (position 13: His) (peptide)
peptide: Ac-RCMLGRVHRPC-NH2
modifications: disulfide 2-11
SMILES: CSCC[C@@H]1NC(=O)[C@@H](NC(=O)[C@H](CCCNC(=N)N)NC(C)=O)CSSC[C@@H](C(N)=O)NC(=O)[C@@H]2CCCN2C(=O)[C@H](CCCNC(=N)N)NC(=O)[C@H](Cc2c[nH]cn2)NC(=O)[C@H](C(C)C)NC(=O)[C@H](CCCNC(=N)N)NC(=O)CNC(=O)[C@H](CC(C)C)NC1=O
notes: as for B3
Activation % [10]: 66% | EC50 [10]: 3400 nM | IC50 [14]: 13.1 nM

B8: MCH analog SEQ. ID. NO. 63 (position 13: Trp) (peptide)
peptide: Ac-RCMLGRVWRPC-NH2
modifications: disulfide 2-11
SMILES: CSCC[C@@H]1NC(=O)[C@@H](NC(=O)[C@H](CCCNC(=N)N)NC(C)=O)CSSC[C@@H](C(N)=O)NC(=O)[C@@H]2CCCN2C(=O)[C@H](CCCNC(=N)N)NC(=O)[C@H](Cc2c[nH]c3ccccc23)NC(=O)[C@H](C(C)C)NC(=O)[C@H](CCCNC(=N)N)NC(=O)CNC(=O)[C@H](CC(C)C)NC1=O
notes: as for B3
Activation % [10]: 83% | EC50 [10]: 890 nM | IC50 [14]: 3.8 nM

B9: MCH analog SEQ. ID. NO. 62 (position 13: Phe) (peptide)
peptide: Ac-RCMLGRVFRPC-NH2
modifications: disulfide 2-11
SMILES: CSCC[C@@H]1NC(=O)[C@@H](NC(=O)[C@H](CCCNC(=N)N)NC(C)=O)CSSC[C@@H](C(N)=O)NC(=O)[C@@H]2CCCN2C(=O)[C@H](CCCNC(=N)N)NC(=O)[C@H](Cc2ccccc2)NC(=O)[C@H](C(C)C)NC(=O)[C@H](CCCNC(=N)N)NC(=O)CNC(=O)[C@H](CC(C)C)NC1=O
notes: as for B3
Activation % [10]: 96% | EC50 [10]: 46 nM | IC50 [14]: 1 nM

B11: MCH analog SEQ. ID. NO. 58 (position 10: D-Glu) (peptide)
peptide: RCMLXRVYRPC
modifications: D-Glu at position 10; N-terminal acetyl, C-terminal amide, Cys-Cys disulfide as in SEQ. ID. NO. 7
notes: as for B3
EC50 [9]: > 10000 nM | % @ 1 (in the IC50 column) [15]: 40%

B12: MCH analog SEQ. ID. NO. 26 (N-Me-Leu^9) (peptide)
peptide: RCMXGRVYRPC
modifications: N-methyl-leucine at position 9; N-terminal acetyl, C-terminal amide, Cys-Cys disulfide as in SEQ. ID. NO. 7
notes: as for B3
Activation % [1]: 3% | EC50 [1]: > 10000 nM | % @ 1 (in the IC50 column) [16]: 10%

B13: MCH analog SEQ. ID. NO. 15 (D-Arg^6) (peptide)
peptide: XCMLGRVYRPC
modifications: D-Arg^6; N-terminal acetyl, C-terminal amide, Cys-Cys disulfide as in SEQ. ID. NO. 7
notes: as for B3
Activation % [7]: 86% | EC50 [7]: 45 nM | IC50 [11]: 0.46 nM
